Source: patent US20190367592A1 (AC IMMUNE, published 2019)
Numbering of substitutions follows the chain as printed. In names and notes the source's numbering stands. Where no end group is shown, it is not given here.

Tests used:
[1] = biological target: T1, recombinant human Tau monomer, 2N4R isoform (amino acids 2-441) (human, UniProt P10636-8 2-441); assay: SPR screen, hIgG captured, Tau monomer analyte; mean of n = 3
T1 construct: range 2-441; N-terminal His-tag removed with TEV protease; also called monomeric Tau
Source text: Antibody 125B11-H3 was humanized onto VH3 and Vκ1 consensus frameworks. The heavy chain graft included murine residues at position 78 (Kabat numbering system). The Vκ1 graft included murine residues in framework positions 43 and 87. The light chain of 113F5-F7 was also humanized onto the Vκ1 framework, with additional murine residues at framework positions 43 and 87. Humanized variant heavy chains (125B11) and light chains (125B11 and 113F5-F7) were co-transfected in multiple combinations and purified in 96-well format as described above. Humanized variants were then screened for affinity for human Tau monomer using the Biacore human IgG capture kit, a Series S CM5 chip and a Biacore T200 instrument. Antibodies were diluted to 2 μg/ml and captured for 15 seconds at 10 μl/min. Association and dissociation of 0, 100 and 500 nM human Tau monomer in HBSP was monitored for 180s and 300s respectively at a flow rate of 40 μl/min. A 1:1 binding model was applied to the results (Table 9).
Variants hu125B11.v17 (HC3+LC1), hu125B11.v26 (HC4+LC2) and hu125B 11.v28 (HC4+LC4) were selected for high-resolution kinetic analysis based on the affinity screen (Table 10). Antibody 94B2-C1 was humanized onto VH1 and Vx2 frameworks. The heavy chain graft also included murine residues at position 28, 29, 67, 69, 71, and 73 (Kabat numbering system). […]
Target sequence in this assay (P10636 other isoform, or with tags, fused parts or gaps limits assumed): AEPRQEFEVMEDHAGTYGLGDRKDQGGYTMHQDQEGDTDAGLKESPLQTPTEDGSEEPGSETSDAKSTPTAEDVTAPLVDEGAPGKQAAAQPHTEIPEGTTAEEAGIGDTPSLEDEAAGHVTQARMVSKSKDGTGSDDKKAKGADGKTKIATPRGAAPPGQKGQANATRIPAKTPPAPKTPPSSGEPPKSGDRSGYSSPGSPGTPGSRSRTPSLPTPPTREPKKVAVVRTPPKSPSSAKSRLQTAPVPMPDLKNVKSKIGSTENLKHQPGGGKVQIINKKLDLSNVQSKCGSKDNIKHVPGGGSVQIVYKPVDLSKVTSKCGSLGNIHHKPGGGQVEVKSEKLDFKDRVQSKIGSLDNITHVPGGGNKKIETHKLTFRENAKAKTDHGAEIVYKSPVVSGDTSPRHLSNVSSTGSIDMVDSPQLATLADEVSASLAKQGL

[2] = biological target: T1, recombinant human Tau monomer, 2N4R …; assay: SPR, hIgG captured, Tau monomer analyte, 1:1 fit
Description: Affinity of selected antibodies was assessed at 25° C. using a Biacore T200 instrument, the GE Biacore human IgG capture kit and a CM5 Series S chip. The hIgG were diluted to 0.25 μg/ml in 10 mM HEPES pH7.4, 150 mM NaCl, 0.05% Tween 20 (running buffer, HBSP) and captured at a flow rate of 10 μl/min for 150 seconds. Kinetic data was collected for Human Tau monomer injected at concentrations of 0, 0.4, 1.2, 3.7, 11, 11, 33 and 100 nM in HBSP, using a flow rate of 30 μl/min, a 300 second association phase and a 600 second dissociation phase. Between cycles the surface was regenerated using two sequential 30 second injections of 3M MgCl at 10 μl/min. Data was fit to a 1:1 binding model (Table 15).

[3] = biological target: T1, recombinant human Tau monomer, 2N4R …; assay: SPR, captured IgG, Tau monomer analyte, 1:1 model; fit-quality column: Yes
Summary of the method: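 Antibodies purified by protein A tip columns were normalized to 0.1 mg/ml; pre-stress kept ~4° C., post-stress held at 40° C. for two weeks. IgG (2 μg/ml) was captured on an anti-human IgG CM5 chip, Tau monomer injected at 0, 26.5 and 265 nM, 25° C., in HBSP; KD from 1:1 fit.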
Target sequence in this assay (P10636 other isoform, or with tags, fused parts or gaps limits assumed): as above

MAPT(10-24) = biological target: T2, MAPT(10-24) (human, also: biotinylated, site not given here); assay: ELISA, biotinylated peptide on Neutravidin plate, IgG titrated, A450 nm
T2 construct: also called Tau fragment 10-24
T2 peptide: VMEDHAGTYGLGDRK
Description: (§1) Following a comparison of 37D3-H9 binding to biotinylated Tau monomer and biotinylated peptide (MAPT_10-24), binding of 37D3-H9 to additional biotinylated peptides was also assessed. Nunc maxisorp 96-well microplates were coated at 4° C. for >12 hours with Neutravidin diluted to 2 μg/ml in 50 mM Sodium Carbonate Buffer, pH 9.6. All subsequent incubations were performed at room temperature. After coating, plates were blocked with Superblock™ (PBS) Blocking Buffer (Thermo Fisher Scientific) for two hours then washed thoroughly with PBS, 0.05% Polysorbate 20. Wells were then exposed to biotinylated Tau peptides (Table 20) or Avi-tag biotinylated Tau monomer at 1 μg/ml for one hour and washed as previously. Peptides were synthesized using standard solid-phase Fmoc chemistry (see, e.g., Fmoc solid phase peptide synthesis: A practical approach; Chan, W. C., White, P. D., Eds.; Oxford University Press: New York, 2000). Antibodies 37D3-H9 mIgG2a and hu37D3-H9.v5 hIgG1, serially diluted from 500 nM to 50 pM in 90% Superblock™ (PBS) Blocking Buffer, were allowed to bind biotinylated-Tau coated wells for 90 minutes. Wells were washed as previously and bound antibody detected with peroxidase-conjugated secondary antibody (Invitrogen/Life Technologies) diluted 1/1000 in Superblock™ Blocking Buffer (Rabbit anti-Mouse IgG or Goat Anti-Human IgG (H+L) respectively). After twenty minutes wells were washed as previously and signal developed with TMB Microwell 2-Component Substrate (KPL). Reactions were stopped by addition of 1M Phosphoric Acid and absorbance at 450 nm was measured with a SpectraMax M2 platereader.

MAPT(2-34) = biological target: T3, MAPT(2-34) (human, biotinylated); assay: as above
T3 construct: also called Tau fragment 2-34
T3 peptide: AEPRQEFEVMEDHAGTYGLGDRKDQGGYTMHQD
Description: as §1

MAPT(2-24) = biological target: T4, MAPT(2-24) (human, biotinylated); assay: as above
T4 construct: also called Tau fragment 2-24
T4 peptide: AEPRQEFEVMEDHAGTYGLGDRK
Description: as §1

[4] = biological target: T1, recombinant human Tau monomer, 2N4R …; assay: SPR, hIgG captured, Tau monomer analyte; mean of four
Description: Affinity was assessed at 25° C. using a Biacore T200 instrument, the GE Biacore human IgG capture kit and a CM5 Series S chip. The hIgG were diluted to 2 μg/ml in 10 mM HEPES pH7.4, 150 mM NaCl, 0.05% Tween 20 (running buffer, HBSP) and captured at a flow rate of 10 μl/min for 22 seconds. […] Between cycles the surface was regenerated using a 30 second injection of 3M Magnesium Chloride at 10 μl/min. A 1:1 binding model was fitted to the data and affinities for hu37D3-H9.v5 and hu37D3-H9.v5.3 (also referred to herein as hu37D3-H9.v5 N28D) calculated using kinetic analysis. Parameters used for the 1:1 fitting included the Instrument default of local fitting for the “RI” parameter.

[5] = biological target: T1, recombinant human Tau monomer, 2N4R …; assay: SPR, hIgG captured, Tau monomer analyte; control sample
[6] = biological target: T1, recombinant human Tau monomer, 2N4R …; assay: SPR, hIgG captured, Tau monomer analyte; stressed sample
[7] = biological target: T1, recombinant human Tau monomer, 2N4R …; assay: SPR, hIgG captured, Tau monomer analyte; unstressed sample
Description: To assess the impact of N²⁸ deamidation on the affinity for human Tau, it was desirable to obtain two samples with widely separated N²⁸ deamidation status. Hu37D3-H9.v5 hIgG4.S228P was incubated at 40° C. for two weeks at a concentration of 1 mg/ml in Phosphate Buffered Saline, pH 7.4. Deamidation of the N²⁸G2⁹ motif was measured using LC-MS/MS. […] The stressed and unstressed antibodies were analyzed for Tau binding by surface plasmon resonance (Biacore) using the GE Biacore human IgG capture kit and a Series S CM5 chip. The hIgG were diluted to 2 μg/ml in 10 mM HEPES pH7.4, 150 mM NaCl, 0.05% Tween 20 (running buffer, HBSP) and captured at a flow rate of 10 μl/min for 15 seconds (t0 sample) or 17 seconds (t2 sample). […] Between cycles the surface was regenerated using a 30 second injection of 3M Magnesium Chloride at 10 μl/min. A 1:1 binding model was fitted to the data using instrument defaults, including local fitting of the “RI” parameter.

[8] = biological target: T1, recombinant human Tau monomer, 2N4R …; assay: SPR single-cycle, Tau monomer amine-coupled, Fab analyte; Fab, not IgG; Tau monomer on the chip
Description: Human monomer Tau protein was covalently coupled to a Biacore Series S CM5 chip using the Biacore Amine Coupling Kit (GE Life Sciences), resulting in immobilization to a level of approximately 128 RU. Direct binding of 37D3-H9 in both Fab and IgG formats was monitored using the single-cycle kinetics experimental format with five association periods of 300s each and antibody concentrations of 1, 2, 4, 8 and 16 nM (IgG) or 5, 10, 20, 40 and 80 nM (Fab). Dissociation was monitored for 7200 seconds (Fab) or for 14400 seconds (IgG). A value for the dissociation rate was calculated by fitting a 1:1 binding model to the data.

B1: hu94B2 HC1 + LC9 (antibody, V domains shown)
VH: EVQLVQSGAEVKKPGASVKVSCKASGYSLTGYTMNWVRQAPGQGLEWIGLISPYNGVTSYNQKFKGRATLTVDKSTSTAYLELSSLRSEDTAVYYCARQGAYWGQGTLVTVSS
VL: DVVMTQTPLSLPVTPGQPASISCKSSQSLLDSDGKTYLNWLLQKPGQSPQRLIYLVSKLDSGVPDRFSGSGSGTDFTLKISRVEAEDVGVYYCWQGTHFPWTFGQGTKVEIK
[1]
  Kd: 3.8 nM

B2: hu37D3-H9.v5 hIgG1 (antibody, V domains shown)
VH: EVQLVESGGGLVQPGGSLRLSCAASGLIFRSYGMSWVRQAPGKGLEWVATINSGGTYTYYPDSVKGRFTISRDNSKNTLYLQMNSLRAEDTAVYYCANSYSGAMDYWGQGTLVTVSS
VL: EDVLTQTPLSLPVTPGQPASISCRSSQSIVHSNGNTYFEWYLQKPGQSPQLLIYKVSNRFSGVPDRFSGSGSGTDFTLKISRVEAEDVGVYYCFQGSLVPWTFGQGTKVEIK
notes: human IgG1, kappa
[2]
  Kd: 1 nM
  koff: 0.0008 s⁻¹
  kon: 750000 M⁻¹ s⁻¹
[3]
  Kd: 1 nM
MAPT(10-24)
  binding result: binds
MAPT(2-34)
  binding result: binds
MAPT(2-24)
  binding result: binds
[4]
  Kd: 1.5 nM

B3: hu37D3-H9.v5 hIgG4.S228P (antibody, V domains shown)
VH: B2 VH
VL: B2 VL
notes: human IgG4 S228P, kappa; the t = 2 weeks sample is partly deamidated at light chain N28
[5]
  Kd: 1.5 nM
[2]
  Kd: 1.3 nM
  koff: 0.0009 s⁻¹
  kon: 710000 M⁻¹ s⁻¹
[6]
  Kd: 1.5 nM
[7]
  Kd: 0.7 nM

B4: 37D3-H9 Fab (Fab, V domains shown)
VH: EVQLVESGGDLAKPGGSLKLSCTASGLIFRSYGMSWVRQTPDKRLEWVATINSGGTYTYYPDSVKGRFTISRDNAKNTLYLQMSSLKSEDTAMYYCANSYSGAMDYWGQGTSVTVSS
VL: B2 VL with E1D, V3L, T14S, P15L, Q17D, Q50K, V88L, Q105G, V109L
notes: Fab format
[8]
  koff: 0.0005 s⁻¹
